Experiment [1] concerns the target T1, hIFNAR1-extracellular domain (ECD) (human, UniProt P17181 28-424).
T1 construct: interferon alpha and beta receptor subunit 1 (IFNAR1), human, extracellular domain, amino acids 28-424 of hIFNAR1 (GenBank CAA42992.1); The cloning paragraph says N-terminal 6xHis tag (modified pFastBac-1); the SPR paragraph says capture by C-terminal His-tags; The reverse primer encodes ...PGNTSK-stop; also called hIFNAR1-ECD; WT IFNAR1-ECD; not shown: 6xHis, N-terminal, kept
T1 sequence (looked up): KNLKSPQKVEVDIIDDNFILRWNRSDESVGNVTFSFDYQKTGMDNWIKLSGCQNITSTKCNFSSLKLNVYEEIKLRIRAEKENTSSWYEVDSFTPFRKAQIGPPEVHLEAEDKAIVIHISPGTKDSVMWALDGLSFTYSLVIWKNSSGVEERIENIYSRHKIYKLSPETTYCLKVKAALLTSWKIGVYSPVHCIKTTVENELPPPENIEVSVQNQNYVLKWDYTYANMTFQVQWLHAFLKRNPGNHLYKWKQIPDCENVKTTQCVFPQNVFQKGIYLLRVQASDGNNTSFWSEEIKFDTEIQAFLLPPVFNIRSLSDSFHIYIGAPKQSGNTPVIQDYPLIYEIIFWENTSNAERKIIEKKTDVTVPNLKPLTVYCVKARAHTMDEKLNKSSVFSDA
Nature of the experiment: SPR; ProteOn XPR36, HTG chip; His-tagged hIFNAR1-ECD or hIFNAR1-ECD-Del (25 µg/ml in TBS) immobilised on the nickel activated chip; ReBif (hIFN-β) in TBS as analyte at various concentrations; TBS running buffer; Langmuir binding model; in the absence of IFNAR2. The conditions noted are these: both partners purified. (In general: Surface plasmon resonance follows binding to a sensor surface in real time, without labels.)

Experiment [2] has as its target T2, hIFNAR1-ECD-Del (extracellular domain of human IFNAR1 with the Pro335 deletion) (human, UniProt P17181 28-424, delete P335).
T2 construct: Naturally occurring variant, made by site-directed mutagenesis of hIFNAR1-ECD; N-terminal 6xHis by the cloning paragraph, C-terminal His-tag by the SPR paragraph; also called IFNAR1Del; not shown: 6xHis, N-terminal, kept
T2 sequence (looked up): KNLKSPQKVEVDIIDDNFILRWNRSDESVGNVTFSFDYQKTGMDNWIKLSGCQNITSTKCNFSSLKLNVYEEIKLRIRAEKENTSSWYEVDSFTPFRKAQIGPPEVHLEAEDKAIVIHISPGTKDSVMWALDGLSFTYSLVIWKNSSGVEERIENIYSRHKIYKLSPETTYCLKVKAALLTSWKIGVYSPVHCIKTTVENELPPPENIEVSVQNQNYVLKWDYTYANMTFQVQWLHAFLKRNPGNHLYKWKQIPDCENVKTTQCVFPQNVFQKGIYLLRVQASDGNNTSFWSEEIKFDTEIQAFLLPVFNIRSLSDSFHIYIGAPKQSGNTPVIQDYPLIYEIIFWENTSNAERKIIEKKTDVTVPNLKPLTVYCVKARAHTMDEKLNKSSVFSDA
The experiment is described as above. The conditions noted are these: both partners purified.

As a reminder, the Kd is the equilibrium constant for the complex coming apart. Low values mean tighter binding, high ones weaker binding.

B1: human IFN-β (ReBif) (ligand, UniProt P01574 22-187, looked up)
chain: MSYNLLGFLQRSSNFQCQKLLWQLNGRLEYCLKDRMNFDIPEEIKQLQQFQKEDAALTIYEMLQNIFAIFRQDSSSTGWNETIVENLLANVYHQINHLKTVLEEKLEKEDFTRGKLMSSLHLKRYYGRILHYLKAKEYSHCAWTIVRVEILRNFYFINRLTGYLRN
notes: interferon beta, human; the drug product ReBif; also called hIFN-β; source: ReBif (hIFN-β), dialyzed into TBS
On to B1, for which the Kd came to 15.8 nM in experiment [1] and 28.1 nM in experiment [2].

The record behind these values is publication PMC5758831, “A proline deletion in IFNAR1 impairs IFN-signaling and underlies increased resistance to tuberculosis in humans” (Nature Communications, 2018).
